According to publication PMC10914628 (Nature Chemistry, 2024):

Biological target: the molecule itself
Assay: SEC; apo state; Superdex 200 in crosslinking buffer (20 mM HEPES pH 7.2, 250 mM KCl, 5 mM EDTA), before and after cross-linking

B1: p97-ND1L-ΔCys-F360C-A413C (domain or fragment)
chain: not shown
modifications: C360 and C413 joined between subunits by bismaleimidoethane (BMOE) in the cross-linked sample
notes: human p97 (VCP), UniProt P55072, residues 1-480; ΔCys: C69V-C77V-C105A-C174A-C184W-C209V-C415A, plus F360C and A413C; also called cysteine-free p97 variant with F360C and A413C; source: E. coli BL21(DE3), purified (Ni-NTA, TEV cleavage, SEC on Superdex 200; apyrase digestion); reduced with DTT and gel-filtered before cross-linking; not shown: His6, N-terminal, cleaved
- stoichiometry N: 6
